From patent US20250186597A1, “TARGETED IMMUNE ACTIVATION WITH IL-18 IMMUNOCYTOKINES” (BRIGHT PEAK THERAPEUTICS AG, priority 2023, published 2025)
Positions count from the first letter of the chain named. Names and notes keep the numbering of the source. One block for each molecule: values may come before it.

Columns and labels:
human IL-18BP = target: T1, human IL-18BP (Homo sapiens, UniProt O95998); experiment: IL-18BP binding alphaLISA assay (Example 4, used in Example 22B); settings: IL-18BP AlphaLISA
T1 construct: His
T1 sequence (O95998 31-194): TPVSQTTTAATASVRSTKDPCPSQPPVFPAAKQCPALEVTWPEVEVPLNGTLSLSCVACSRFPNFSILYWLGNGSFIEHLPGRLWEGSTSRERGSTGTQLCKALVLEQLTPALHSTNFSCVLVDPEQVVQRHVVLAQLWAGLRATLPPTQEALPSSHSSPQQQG
Description: A human IL-18BP AlphaLISA Assay Kit is used to determine the binding affinity of each immunocytokine and IL-18 variant for IL-18BP, which detected the presence of free form IL-18BP.
Sixteen three-fold serial dilutions of IL-18 analytes are prepared in aMEM medium supplemented with 20% FCS, Glutamax, and 25 µM β-mercaptoethanol in the presence of 5 ng/mL of His-tagged human IL-18BP. Final IL-18 analytes concentration range from 2778 nM to […].
After 1 hr incubation at room temperature, free IL-18BP levels are measured using a […]. In a 384 well OPTIplate, 5 μL of 5× Anti-IL-18BP acceptor beads are added to 7.5 μL of an IL-18/IL-18BP mix. After 30 min incubation at room temperature with shaking, 5 μL of biotinylated Anti-IL-18BP antibodies are added to each well. The plate is incubated further for 1 hr at room temperature. Under subdued light, 12.5 μL of 2× streptavidin (SA) donor beads are pipetted into each well, and the wells are incubated with shaking for an additional 30 min at room temperature. The AlphaLisa signal is then measured on an Enspire plate reader with 680 and 615 nm as excitation and emission wavelengths, respectively. The dissociation constant (KD) is calculated based on a variable slope, four parameter analysis using GraphPad PRISM software.
An IL-18 binding protein AiphaLISA experiment substantially as described in Example 4 was performed on IL-18 polypeptide which can be incorporated into immunocytokine compositions as provided herein to assess ability to bind to IL-181BP. It is expected that the IL-18 polypeptides provided below would behave analogously to C086 (SEQ ID NO: 30) when incorporated into an immunocytokine composition as those otherwise provided herein.

NK-92 cells [1] = experiment: IFNγ induction cellular assay in NK-92 cells (Example 4, used in Example 22C); assay type: cell-based, human; settings: IFNg stimulation in NK92 cells
Description: The ability of immunocytokines and IL-18 polypeptides provided herein are assessed for ability to induce IFN[…] in a cellular assay according to the protocol below.
The NK cell line NK-92 derived from a patient with lymphoma (ATCC® CRL-2407™) is cultured in aMEM medium supplemented with 20% FCS, Glutamax, 25 µM B-mercaptoethanol, and 100 IU/mL of recombinant human IL-2.
On the day of experiment, cells are harvested and washed with aMEM medium without IL-2 and containing 1 ng/mL of recombinant human IL-12. After counting, cells are seeded at 100,000 cells/well in a 384 well titer plate and incubated at 37° C./5% CO2. Sixteen 4-fold serial dilutions of IL-18 analytes are prepared in aMEM medium, and 1 ng/mL of IL-12 were added to the NK-92 cells. Final IL-18 analyte concentrations range from 56 nM to 5×10^−5 pM.
After incubating the cells for 16-20 hr at 37° C./5% CO2, 5 μL of supernatant is carefully transferred to a 384 microwell OptiPlate. IFNγ levels are measured using a human IFNγ AlphaLISA Assay Kit. Briefly, 10 μL of 2.5× AlphaLISA Anti-IFNγ acceptor beads and biotinylated antibody anti-IFNγ mix are added to the 5 μL of NK-92 supernatants. The mixtures are incubated for 1 hr at room temperature with shaking. Under subdued light, 2.5 μL of 2× streptavidin (SA) donor beads are pipetted into each well, and the wells are incubated for 30 min at room temperature with shaking. AlphaLISA signals are then measured on an EnSpire™ plate reader using 680 nm and 615 nm as excitation and emission wavelengths, respectively. Half maximal effective concentrations (EC50) are calculated based on a variable slope and four parameter analysis using GraphPad PRISM software.
(§1) The experiments described in Example 4 for determination of IFNg stimulation in NK92 cells (and inhibition by IL-18 BP) were performed substantially as described on IL-18 polypeptides in order to assess their activities and their suitability for incorporation into immunocytokine compositions. It is expected that the IL-18 polypeptides provided below would behave analagously to C086 (SEQ ID NO: 30) when incorporated into an immunocytokine composition as those otherwise provided herein.

NK-92 cells [2] = experiment: IL-18 binding protein inhibition cellular assay in NK-92 cells (Example 4, used in Example 22C); assay type: cell-based, human; settings: inhibition by IL-18BP of IFNg stimulation in NK92 cells
Description: The NK cell line NK-92 derived from a patient with lymphoma (ATCC® CRL-2407™) is cultured in aMEM medium supplemented with 20% FCS-Glutamax, 25 µM B-mercaptoethanol, and 100 IU/mL of recombinant human IL-2.
On the day of experiment, cells are harvested and washed with aMEM medium without IL-2 and containing 1 ng/mL of recombinant human IL-12. After counting, the cells are seeded at 100,000 cells/well in a 384 well titer plate and incubated at 37° C./5% CO2. Sixteen 2-fold serial dilutions of Fc-fused human IL-18 binding protein isoform a (IL-18BPa) are prepared in aMEM medium. 1 ng/mL of IL-12 containing 2 nM of each IL-18 polypeptide variant is added to the NK-92 cells. The final IL-18 analyte concentration is 1 nM, and the final IL-18BPa concentration ranged from 566 nM to […].
After incubating the cells for 16-20 hr at 37° C./5% CO2, 5 μL of the supernatant is carefully transferred to a 384 microwell OptiPlate. IFNγ levels are measured using a human IFNγ AlphaLISA Assay Kit. Briefly, 10 μL of 2.5× AlphaLISA anti-IFNγ acceptor beads and biotinylated antibody anti-IFNγ mix are added to 5 μL of NK-92 supernatants. The mixtures are incubated for 1 hr at room temperature with shaking. Under subdued light, 2.5 μL of 2×SA donor beads are pipetted in each well and incubated for 30 min at room temperature with shaking. AlphaLISA signals are then measured on an EnSpire™ plate reader using 680 nm and 615 nm as excitation and emission wavelengths, respectively. Half maximal inhibitory concentrations (IC50) are calculated based on a variable slope and four parameter analysis using GraphPad PRISM software.
as §1

Kd (human IL-18BP): > 2800 nM
B1: SEQ ID NO: 72: IL-18 polypeptide: N-terminal 4xG, E6K, V11I, C38A, K53A, T63A, C76A, C127A (protein)
chain: GGGGYFGKLKSKLSIIRNLNDQVLFIDQGNRPLFEDMTDSDARDNAPRTIFIISMYADSQPRGMAVAISVKCEKISTLSAENKIISFKEMNPPDNIKDTKSDIIFFQRSVPGHDNKMQFESSSYEGYFLAAEKERDLFKLILKKEDELGDRSIMFTVQNED
modifications: N-terminal 4xG
notes: IL-18 polypeptide: N-terminal 4xG, E6K, V11I, C38A, K53A, T63A, C76A, C127A

EC50 (NK-92 cells [1]): > 1000 nM
Kd (human IL-18BP): > 1000 nM
B2: 44 (protein)
chain: YAGKLKSKLSVIRNLNDQVLFIDQGNRPLFEDMTDSDCRDNAPRTIFIISMYADAQPRGMAVTISVKCEKISTLSCENKIISFKEMNPPDNIKDTKSDIIFFQRSVPGHDNKMQFESSSYEGYFLACEKERDLFKLILKKEDELGDRSIMFTVQNED

Kd (human IL-18BP): > 2800 nM
B3: C181: IL-18 polypeptide: E6K, V11I, C38A, K53A, T63A, C76A, C127A, V153E (protein)
chain: B2 chain with A2F, V11I, C38A, A55S, T63A, C76A, C127A, V153E

Kd (human IL-18BP): 436 nM
B4: 56 (protein)
chain: B2 chain with A2F, C38S, A55S, C76S, C127S

Kd (human IL-18BP): 5.46 nM
B5: C184: IL-18 polypeptide: E6R, V11I, C38A, K53A, T63A, C76A, C127A (protein)
chain: B2 chain with A2F, K6R, V11I, C38A, A55S, T63A, C76A, C127A

EC50 (NK-92 cells [1]): 1.37 nM
IC50 (NK-92 cells [2]): 5.85 nM
B6: 6 (protein)
chain: B2 chain with A2F, V11I, C38A, A55S, T63A, C68A, C76A, D98C, C127A

EC50 (NK-92 cells [1]): 0.075 nM
IC50 (NK-92 cells [2]): 62.4 nM
B7: 5 (protein)
chain: B2 chain with A2F, V11I, C38A, A55S, T63A, C68A, C76A, M86C, C127A

Kd (human IL-18BP): 25.8 nM
B8: C176: IL-18 polypeptide: E6K, V11I, C38A, I49M, K53A, T63A, C76A, C127A (protein)
chain: B2 chain with A2F, V11I, C38A, I49M, A55S, T63A, C76A, C127A

EC50 (NK-92 cells [1]): 30 nM
Kd (human IL-18BP): > 1000 nM
B9: 45 (protein)
chain: B2 chain with A2F, D54A

Kd (human IL-18BP): > 2800 nM
B10: SEQ ID NO: 69: IL-18 polypeptide: E6K, V11I, C38A, M51G, K53A, T63A, C76A, C127A (protein)
chain: B2 chain with A2F, V11I, C38A, M51G, A55S, T63A, C76A, C127A

Kd (human IL-18BP): > 2800 nM
B11: C179: IL-18 polypeptide: E6K, K8E, V11I, C38A, K53A, T63A, C76A, Q103R, C127A (protein)
chain: B2 chain with A2F, K8E, V11I, C38A, A55S, T63A, C76A, Q103R, C127A

Kd (human IL-18BP): 2.25 nM
B12: C142: IL-18 polypeptide: Y1M, E6K, V11I, C38A, K53A, T63A, C76A, C127A (protein)
chain: B2 chain with Y1M, A2F, V11I, C38A, A55S, T63A, C76A, C127A

Kd (human IL-18BP): > 2800 nM
B13: C177: IL-18 polypeptide: E6K, V11I, C38A, I49R, K53A, T63A, C76A, C127A (protein)
chain: B2 chain with A2F, V11I, C38A, I49R, A55S, T63A, C76A, C127A

Kd (human IL-18BP): 0.14 nM
B14: C174: IL-18 polypeptide: K8L, E6K, V11I, C38A, K53A, T63A, C76A, C127A (protein)
chain: B2 chain with A2F, K8L, V11I, C38A, A55S, T63A, C76A, C127A

Kd (human IL-18BP): > 2800 nM
B15: C182: IL-18 polypeptide: E6K, V11I, C38A, K53A, T63A, C76A, C127A, V153Y (protein)
chain: B2 chain with A2F, V11I, C38A, A55S, T63A, C76A, C127A, V153Y

Kd (human IL-18BP): > 2800 nM
B16: C178: IL-18 polypeptide: E6K, V11I, C38A, K53A, T63A, C76A, Q103R, C127A (protein)
chain: B2 chain with A2F, V11I, C38A, A55S, T63A, C76A, Q103R, C127A

EC50 (NK-92 cells [1]): 58.5 nM
Kd (human IL-18BP): > 1000 nM
B17: 49 (protein)
chain: B2 chain with A2F, C38S, C68S, K70C, C76S, C127S

Kd (human IL-18BP): > 2800 nM
B18: SEQ ID NO: 71: IL-18 polypeptide: N-terminal G, E6K, V11I, C38A, K53A, T63A, C76A, C127A (protein)
chain: GYFGKLKSKLSIIRNLNDQVLFIDQGNRPLFEDMTDSDARDNAPRTIFIISMYADSQPRGMAVAISVKCEKISTLSAENKIISFKEMNPPDNIKDTKSDIIFFQRSVPGHDNKMQFESSSYEGYFLAAEKERDLFKLILKKEDELGDRSIMFTVQNED
modifications: N-terminal G
notes: IL-18 polypeptide: N-terminal G, E6K, V11I, C38A, K53A, T63A, C76A, C127A

Kd (human IL-18BP): > 2800 nM
B19: SEQ ID NO: 70: IL-18 polypeptide: N-terminal G, E6K, V11I, C38A, M51G, K53A, T63A, C76A, C127A (protein)
chain: B18 chain with M52G
modifications: N-terminal G
notes: IL-18 polypeptide: N-terminal G, E6K, V11I, C38A, M51G, K53A, T63A, C76A, C127A
